Results reported in the supplement of paper PMC6757056.
± gives the standard deviation of the averaged measurements.

B1: library; a variant is named by its letters at N, in order (parent)
chain: GCUGUCACCGGUGCUUGGUACGUUAUAUUCAGCCGGUCUGAUGAGUCUNNNNNNAGACGAAACAGC

What was measured:
(6R,S)-folinic acid [1] = variants of: B1; assay: FACS-Seq fitted mean relative fluorescence mCherry/BFP without ligand (log10 relative fluorescence); HEK293T overexpressing SLC46A1; higher = higher reporter protein expression; details: without (6R,S)-folinic acid; ligand present: no
How it was run: (§1)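 An mCherry reporter containing the ribozyme switch and an EF1α-BFP marker were introduced by lentivirus into HEK293T libraries. Cells were enriched, incubated 48 h with or without ligand, sorted into 6 bins by mCherry/BFP, and bin genomic DNA was PCR-amplified, barcoded and sequenced on MiSeq. Fluorescence represents the normalized fitted normal mean of the bin counts. Fitting was done on log10(mCherry/BFP), scaling to five spiked-in control ribozymes.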

(6R,S)-folinic acid [2] = variants of: B1; assay: normalized RNA/DNA level without ligand (relative to sTRSVctl = 100) (log10 (% of sTRSVctl)); HEK293T overexpressing SLC46A1; higher = less ribozyme self-cleavage, higher mRNA level; details: without (6R,S)-folinic acid; ligand present: no
How it was run: (§2)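 Library plasmids carrying ribozyme switches linked to mCherry, or to eGFP in some ligand experiments, were transfected into HEK293T at 4 µg per 6-well well, with any ligand added 1 h earlier. Seventy-two hours on, total RNA was extracted with EDTA and reverse-transcribed, amplified, barcoded and sequenced. RNA level was RNA over DNA reads normalized to a spiked-in non-cleaving sequence or to the top sequences, then scaled and log-transformed. The top set was 25 sequences, the transform was ×100 and log10, and sequences needed ≥100 DNA reads.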

(6R,S)-folinic acid [3] = variants of: B1; assay: FACS-Seq fitted mean relative fluorescence mCherry/BFP with ligand (log10 relative fluorescence); HEK293T overexpressing SLC46A1; ligand concentration (+) FACS-Seq: 6 mM; higher = higher reporter protein expression; details: with (6R,S)-folinic acid; ligand present: yes
How it was run: as §1

(6R,S)-folinic acid [4] = variants of: B1; assay: normalized RNA/DNA level with ligand (relative to sTRSVctl = 100) (log10 (% of sTRSVctl)); HEK293T overexpressing SLC46A1; ligand concentration (+) RNA-Seq: 6 mM; higher = less ribozyme self-cleavage, higher mRNA level; details: with (6R,S)-folinic acid; ligand present: yes
How it was run: as §2

Row | Variant | FACS-Seq fitted mean (log10) ((6R,S)-folinic acid [1]) | normalized RNA/DNA level without ligand (log10) ((6R,S)-folinic acid [2]) | FACS-Seq fitted mean (log10) ((6R,S)-folinic acid [3]) | normalized RNA/DNA level with ligand (log10) ((6R,S)-folinic acid [4])
1 | ACAGAU | -0.89 ± 0.044 | 1.95 ± 0.0032 | -0.82 ± 0.13 | 2.03 ± 0.04
2 | CAUAUC | -0.161 ± 0.056 | 2.078 ± 0.0032 | -0.426 ± 0.011 | 2.03 ± 0.034
3 | CAUAUU | 0.434 ± 0.11 | 1.982 ± 0.0059 | 0.246 ± 0.17 | 1.98 ± 0.025
4 | CAUAUG | 0.419 ± 0.028 | 2.026 ± 0.0042 | 0.496 ± 0.28 | 2.01 ± 0.023
5 | UAUAUG | 0.194 ± 0.045 | 1.75 ± 0.018 | 0.678 ± 0.12 | 1.97 ± 0.035
6 | UAUGUG | 0.257 ± 0.25 | 1.65 ± 0.024 | 0.638 ± 0.018 | 1.944 ± 0.019
7 | AAUGUC | -0.0892 ± 0.053 | 2.075 ± 0.01 | -0.24 ± 0.095 | 2.037 ± 0.0021
8 | AAUUGA | 0.309 ± 0.021 | 1.966 ± 0.0098 | 0.358 ± 0.11 | 2 ± 0.0091
9 | AAUUGG | 0.112 ± 0.046 | 1.93 ± 0.024 | 0.122 ± 0.064 | 2 ± 0.022
10 | AAUUGU | 0.0241 ± 0.064 | 1.949 ± 0.019 | 0.334 ± 0.097 | 1.98 ± 0.032
11 | UAUAGG | 0.0298 ± 0.024 | 1.58 ± 0.029 | 0.514 ± 0.24 | 1.92 ± 0.02
12 | UAUAGA | 0.233 ± 0.082 | 1.911 ± 0.003 | 0.417 ± 0.064 | 1.989 ± 0.013
13 | UAUAGC | 0.469 ± 0.011 | 1.943 ± 0.018 | 0.395 ± 0.19 | 1.98 ± 0.036
14 | GCAAGG | 0.437 ± 0.041 | 1.957 ± 0.007 | 0.376 ± 0.13 | 2.04 ± 0.049
15 | GCAAGA | 0.477 ± 0.0057 | 2.022 ± 0.0049 | 0.457 ± 0.12 | 2.04 ± 0.024
16 | GAUUCU | 0.0461 ± 0.007 | 2.015 ± 0.0091 | -0.0821 ± 0.066 | 2.04 ± 0.042
17 | GAUUCA | 0.437 ± 0.14 | 1.985 ± 0.0095 | 0.333 ± 0.013 | 2.01 ± 0.025
18 | ACAAAC | 0.439 ± 0.018 | 2.03 ± 0.025 | 0.419 ± 0.038 | 2.02 ± 0.043
19 | ACAAAG | 0.424 ± 0.017 | 1.929 ± 0.019 | 0.459 ± 0.23 | 2.01 ± 0.042
20 | UAUACC | 0.255 ± 0.057 | 2.011 ± 0.0036 | 0.126 ± 0.21 | 2.018 ± 0.014
21 | UAUACG | 0.496 ± 0.089 | 1.76 ± 0.018 | 0.905 ± 0.26 | 1.96 ± 0.02
22 | UAUACU | 0.4 ± 0.2 | 1.9765 ± 0.0012 | 0.253 ± 0.07 | 1.99 ± 0.015
23 | CAUCGC | 0.37 ± 0.072 | 2.019 ± 0.0067 | 0.228 ± 0.031 | 1.99 ± 0.041
24 | CAUCUC | 0.717 ± 0.072 | 2.111 ± 0.017 | 0.619 ± 0.56 | 2.08 ± 0.072

Row | Variant | FACS-Seq fitted mean (log10) ((6R,S)-folinic acid [1]) | normalized RNA/DNA level without ligand (log10) ((6R,S)-folinic acid [2]) | FACS-Seq fitted mean (log10) ((6R,S)-folinic acid [3]) | normalized RNA/DNA level with ligand (log10) ((6R,S)-folinic acid [4])
25 | GAUAUG | 0.0919 ± 0.075 | 1.919 ± 0.005 | 0.0285 ± 0.14 | 2 ± 0.038
26 | GAUAUA | 0.295 ± 0.015 | 1.96 ± 0.005 | 0.482 ± 0.11 | 2 ± 0.028
27 | UCACCG | 0.426 ± 0.13 | 1.971 ± 0.006 | 0.151 ± 0.15 | 2.01 ± 0.03
28 | GAUGAA | 0.212 ± 0.041 | 1.966 ± 0.012 | 0.37 ± 0.0079 | 1.989 ± 0.017
29 | GAUGAU | 0.196 ± 0.072 | 1.935 ± 0.019 | 0.199 ± 0.049 | 1.98 ± 0.034
30 | GAUGAC | 0.579 ± 0.11 | 1.95 ± 0.025 | 0.593 ± 0.085 | 2.01 ± 0.043
31 | GAUGAG | 0.483 ± 0.0054 | 1.858 ± 0.0066 | 0.624 ± 0.12 | 1.978 ± 0.015
32 | UAUUGA | 0.265 ± 0.09 | 1.91 ± 0.025 | 0.57 ± 0.12 | 1.985 ± 0.003
33 | UAUUGG | -0.0117 ± 0.013 | 1.59 ± 0.037 | 0.338 ± 0.024 | 1.91 ± 0.034
34 | AAUCUA | 0.267 ± 0.13 | 1.99 ± 0.013 | 0.439 ± 0.27 | 2.014 ± 0.013
35 | AAUCUU | 0.524 ± 0.12 | 2.002 ± 0.013 | 0.276 ± 0.024 | 2.013 ± 0.017
36 | UAUAAU | 0.283 ± 0.048 | 1.941 ± 0.0058 | 0.412 ± 0.033 | 1.996 ± 0.016
37 | UAUAAG | 0.158 ± 0.15 | 1.688 ± 0.0045 | 0.476 ± 0.26 | 1.93 ± 0.027
38 | UCAAAA | 0.0137 ± 0.17 | 1.944 ± 0.012 | 0.0601 ± 0.04 | 1.99 ± 0.046
39 | UCAAAC | 0.446 ± 0.11 | 2.01 ± 0.0051 | 0.621 ± 0.079 | 2.01 ± 0.056
40 | GCAGCG | 0.175 ± 0.0041 | 1.977 ± 0.016 | 0.0708 ± 0.18 | 2.03 ± 0.022
41 | AAUCCU | 0.552 ± 0.046 | 2.051 ± 0.0088 | 0.476 ± 0.068 | 2.06 ± 0.019
42 | AAUCCA | 0.639 ± 0.012 | 1.995 ± 0.015 | 0.486 ± 0.014 | 1.99 ± 0.029
43 | AAUGCA | 0.514 ± 0.0055 | 1.99 ± 0.03 | 0.45 ± 0.072 | 2.02 ± 0.034
44 | AAUGCG | 0.217 ± 0.13 | 1.839 ± 0.018 | 0.405 ± 0.11 | 2 ± 0.03
45 | CAUGAA | -0.00657 ± 0.027 | 1.954 ± 0.014 | -0.0505 ± 0.07 | 1.98 ± 0.045
46 | ACACCG | 0.142 ± 0.015 | 1.99 ± 0.022 | 0.198 ± 0.14 | 2.01 ± 0.022
47 | ACACCA | 0.658 ± 0.22 | 2.035 ± 0.0068 | 0.462 ± 0.1 | 2.03 ± 0.022
48 | CCACGU | 0.714 ± 0.093 | 2.053 ± 0.0035 | 0.4025 ± 0.00094 | 2.0397 ± 0.0012

Row | Variant | FACS-Seq fitted mean (log10) ((6R,S)-folinic acid [1]) | normalized RNA/DNA level without ligand (log10) ((6R,S)-folinic acid [2]) | FACS-Seq fitted mean (log10) ((6R,S)-folinic acid [3]) | normalized RNA/DNA level with ligand (log10) ((6R,S)-folinic acid [4])
49 | CCACAA | 0.496 ± 0.0082 | 1.969 ± 0.0044 | 0.422 ± 0.22 | 1.96 ± 0.016
50 | GAUGCA | 0.5601 ± 0.0038 | 2.009 ± 0.0054 | 0.5189 ± 0.004 | 2.04 ± 0.035
51 | GAUGCG | 0.444 ± 0.16 | 1.941 ± 0.011 | 0.693 ± 0.15 | 2.02 ± 0.07
52 | CCACUU | 0.0563 ± 0.03 | 1.97 ± 0.021 | -0.0467 ± 0.18 | 1.972 ± 0.007
53 | ACAAUG | 0.173 ± 0.021 | 1.96 ± 0.02 | 0.372 ± 0.11 | 2.03 ± 0.033
54 | ACAAUA | 0.486 ± 0.011 | 1.981 ± 0.0063 | 0.509 ± 0.16 | 2.004 ± 0.02
55 | AAUGAG | 0.455 ± 0.051 | 1.778 ± 0.0047 | 0.7222 ± 0.0013 | 1.97 ± 0.021
56 | AAUGAA | 0.442 ± 0.1 | 1.956 ± 0.0073 | 0.46 ± 0.055 | 2 ± 0.029
57 | GAUACG | 0.356 ± 0.069 | 1.9665 ± 0.00032 | 0.274 ± 0.0064 | 2 ± 0.0056
58 | GAUACA | 0.251 ± 0.036 | 1.974 ± 0.0043 | 0.585 ± 0.09 | 1.98 ± 0.047
59 | ACACGA | 0.206 ± 0.039 | 1.9971 ± 0.00061 | 0.242 ± 0.26 | 2.02 ± 0.059
60 | UAUGCU | -0.0167 ± 0.051 | 2.007 ± 0.0048 | 0.129 ± 0.27 | 2.04 ± 0.029
61 | UAUGCG | 0.276 ± 0.043 | 1.7391 ± 0.00075 | 0.61 ± 0.063 | 1.961 ± 0.014
62 | UAUCCG | 0.17 ± 0.01 | 1.84 ± 0.017 | 0.376 ± 0.25 | 1.993 ± 0.019
63 | GAUUAG | -0.00141 ± 0.0098 | 1.95 ± 0.0067 | -0.175 ± 0.038 | 2.005 ± 0.013
64 | GAUUAU | 0.371 ± 0.018 | 1.97 ± 0.013 | 0.305 ± 0.0094 | 1.992 ± 0.012
65 | GAUUAA | 0.2664 ± 0.0013 | 1.977 ± 0.0031 | 0.453 ± 0.16 | 2 ± 0.028
66 | ACAGCG | 0.271 ± 0.031 | 1.82 ± 0.023 | 0.411 ± 0.034 | 2.01 ± 0.031
67 | ACAGCA | 0.531 ± 0.039 | 2.015 ± 0.012 | 0.555 ± 0.17 | 2.04 ± 0.037
68 | AAUUUG | 0.443 ± 0.039 | 1.952 ± 0.016 | 0.374 ± 0.038 | 2.02 ± 0.024
69 | AAUUUU | 0.217 ± 0.14 | 2.04 ± 0.029 | 0.309 ± 0.3 | 2.01 ± 0.025
70 | GCAGAU | 0.24 ± 0.072 | 1.958 ± 0.011 | 0.319 ± 0.16 | 2.02 ± 0.035
71 | CCAAAA | 0.502 ± 0.074 | 1.971 ± 0.0043 | 0.496 ± 0.19 | 1.96 ± 0.022
72 | GCAAAA | 0.327 ± 0.023 | 1.989 ± 0.0033 | 0.174 ± 0.032 | 2 ± 0.051
